Measurements: US20190010233A1 (JIANGSU HYAMAB PHARMACEUTICAL, published 2019)

How the values were obtained:
[1] = biological target: T1, human PD-L1^ECD-hFc protein (human, UniProt Q9NZQ7 19-239, biotinylated in the PD-1 binding ELISA (Table 3) and in the Octet assay (Table 12)); assay: ELISA receptor-ligand blocking assay: PD-L1 protein coated, fully human antibody titrated, blocked ligand B7.1, inhibition rate (%)
T1 construct: The plain and the biotinylated protein are kept as one molecule; also called PD-L1-hFc; Immunogen A; not shown: human IgG Fc fragment (hFc)

[2] = biological target: T2, full length human PD-L1 on cells (human, UniProt Q9NZQ7 19-290); assay: FACS CHOK1-hPD-L1, 0.0003 nM mAb
T2 construct: Also used as the target of the cell-based functional assays (transfected stimulator cells; PD-L1 of the cells in the mixed lymphocyte reaction); also called CHO-K1-hPD-L1; CHOK1-hPD-L1

[3] = biological target: T3, full length cyno PD-L1 on cells (cyno, UniProt G7PSE7 19-290); assay: FACS CHO-K1-cPD-L1, 0.3 nM mAb
T3 construct: also called CHO-K1-cPD-L1

[4] = biological target: T2, full length human PD-L1 on cells; assay: FACS CHOK1-hPD-L1, 3 nM mAb
[5] = biological target: T2, full length human PD-L1 on cells; assay: FACS CHOK1-hPD-L1, 0.003 nM mAb
[6] = biological target: T3, full length cyno PD-L1 on cells; assay: FACS CHO-K1-cPD-L1, 30 nM mAb
[7] = biological target: T3, full length cyno PD-L1 on cells; assay: FACS CHO-K1-cPD-L1, 0.0003 nM mAb
[8] = biological target: T3, full length cyno PD-L1 on cells; assay: FACS CHO-K1-cPD-L1, 0.003 nM mAb
[9] = biological target: T2, full length human PD-L1 on cells; assay: cell-based or functional assay
[10] = biological target: T2, full length human PD-L1 on cells; assay: FACS CHOK1-hPD-L1, 0.03 nM mAb
[11] = biological target: T2, full length human PD-L1 on cells; assay: cell-based or functional assay; remark: listed apart in the source
[12] = biological target: T3, full length cyno PD-L1 on cells; assay: FACS CHO-K1-cPD-L1, 0.03 nM mAb
[13] = biological target: T1, human PD-L1^ECD-hFc protein; assay: ELISA receptor-ligand blocking assay: PD-L1 protein coated, fully human antibody titrated, blocked ligand PD-1, inhibition rate (%)
[14] = biological target: T2, full length human PD-L1 on cells; assay: FACS CHOK1-hPD-L1, 300 nM mAb
[15] = biological target: T3, full length cyno PD-L1 on cells; assay: FACS CHO-K1-cPD-L1, 300 nM mAb
[16] = biological target: T2, full length human PD-L1 on cells; assay: FACS CHOK1-hPD-L1, 30 nM mAb
[17] = biological target: T2, full length human PD-L1 on cells; assay: FACS CHOK1-hPD-L1, 0.3 nM mAb
[18] = biological target: T3, full length cyno PD-L1 on cells; assay: FACS CHO-K1-cPD-L1, 3 nM mAb

T3 sequence (G7PSE7 entry or part of it limits assumed): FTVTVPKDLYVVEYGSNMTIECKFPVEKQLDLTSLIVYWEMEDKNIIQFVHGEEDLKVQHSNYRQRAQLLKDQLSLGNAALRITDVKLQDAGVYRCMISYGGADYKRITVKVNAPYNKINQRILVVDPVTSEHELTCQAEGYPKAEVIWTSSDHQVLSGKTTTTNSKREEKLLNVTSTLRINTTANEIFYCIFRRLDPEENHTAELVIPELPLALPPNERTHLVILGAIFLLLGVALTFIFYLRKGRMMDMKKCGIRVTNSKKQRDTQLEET
T2 sequence (Q9NZQ7 19-290 limits assumed): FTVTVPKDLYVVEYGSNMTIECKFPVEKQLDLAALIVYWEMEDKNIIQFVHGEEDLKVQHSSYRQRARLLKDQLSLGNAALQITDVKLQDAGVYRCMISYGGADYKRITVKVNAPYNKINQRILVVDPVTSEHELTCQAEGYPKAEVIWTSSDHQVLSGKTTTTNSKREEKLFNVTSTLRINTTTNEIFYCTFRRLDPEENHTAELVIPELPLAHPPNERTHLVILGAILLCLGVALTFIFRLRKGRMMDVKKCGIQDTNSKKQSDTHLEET
T1 sequence (Q9NZQ7 19-239): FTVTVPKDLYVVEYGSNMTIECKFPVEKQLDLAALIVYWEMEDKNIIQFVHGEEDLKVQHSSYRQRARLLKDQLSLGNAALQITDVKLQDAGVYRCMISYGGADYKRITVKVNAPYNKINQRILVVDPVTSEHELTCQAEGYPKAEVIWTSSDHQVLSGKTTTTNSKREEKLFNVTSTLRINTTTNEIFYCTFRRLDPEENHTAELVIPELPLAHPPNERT

B1: fully human anti-PD-L1 antibody 105C5D7 (antibody, V domains shown)
VH: EVQLVESGGGLVQPGGSLRLSCAASGFTFSSYWMSWVRQAPGKGLEWVANIKQDGNEKYYVDSVKGRFTISRDNAKNSLYLQMNSLRAEDTAVYYCARNIKWGDAFDIWGQGTMVTVSS
VL: DIQMTQSPSSLSASVGDRVTITCRASQSISSYLNWYQQKPGKAPKLLIYAASSLQSGVPSRFSGSGSGTDFTLTISSLQPEDFAIYSCQQSYSIPLTFGGGTKVEIKR
notes: also called 105C5D7 (fully human)
Q: What does the source list for B1?
A: IC50 (read off the curve) [1]: ~2 nM; Mean fluorescence intensity [2]: 6.61; Mean fluorescence intensity [3]: 107; Mean fluorescence intensity [4]: 435; Mean fluorescence intensity [5]: 7.3; Mean fluorescence intensity [6]: 335; Mean fluorescence intensity [7]: 5.31; Mean fluorescence intensity [8]: 9.85; IL-2 (pg/mL), MLR, 0.001 µg/mL mAb [9]: 43 pg/mL; IL-2 (pg/mL), MLR, 0.01 µg/mL mAb [9]: 92.2 pg/mL; IL-2 (pg/mL), MLR, 0.1 µg/mL mAb [9]: 118 pg/mL; IL-2 (pg/mL), MLR, 1 µg/mL mAb [9]: 148 pg/mL; Mean fluorescence intensity [10]: 23.1; IFN-γ (pg/mL), MLR, 0.001 µg/mL mAb [11]: 1880 pg/mL; IFN-γ (pg/mL), MLR, 0.01 µg/mL mAb [11]: 2580 pg/mL; IFN-γ (pg/mL), MLR, 0.1 µg/mL mAb [11]: 4930 pg/mL; IFN-γ (pg/mL), MLR, 1 µg/mL mAb [11]: 4280 pg/mL; IFN-γ (pg/mL), MLR, 10 µg/mL mAb [11]: 5260 pg/mL; Mean fluorescence intensity [12]: 18.8; IC50 (read off the curve) [13]: ~2 nM; Mean fluorescence intensity [14]: 382; Mean fluorescence intensity [15]: 299; Mean fluorescence intensity [16]: 380; Mean fluorescence intensity [17]: 116; Mean fluorescence intensity [18]: 375
